From US20040172671A1, “Transgenic plants protected against parasitic plants” (priority 2001, published 2004)

How the values were obtained:
[1] = test system: several bacteria, including plant pathogenic bacteria; conditions: SLP secreted from yeast cells (Aly et al, 1999); cited from earlier work
[2] = test system: Orobanche aegyptiaca seeds; experiment: Petri dish assay: effect of SLP on O. aegyptiaca seed germination and radicle elongation; type: in vivo
Description: The effect of the direct application of the lytic toxin Sarcotoxin IA (SLP) to seeds of the parasitic plant O. aegyptiaca was assayed. SLP was obtained by production in S. cerevisiae, and applied to seeds during both preconditioning and germination stages as follows: Yeast strain Y426-MATa yeast cells transformed with a yeast shuttle vector-pFL61 to express the sarcotoxin IA were cultured in -URA liquid media at 30° C. for 72 h as described in Aly et al. (1999). The cultures were then centrifuged for 5 min at 4000 g and the supernatant collected for SLP assay. Quantitative evaluation of the SLP concentration present in the growth media was obtained by Western blot analysis. The effect of SLP on O. aegyptiaca seeds was determined in a Petri dish assay. Parasite seeds were surface-sterilized, dispersed on Whatman GF/A glass-fiber (0.7 cm diam.), covered with the same filter, and placed in a Petri dish. […] After incubation in dark at 26° C. for 7 days, seeds were rated for radicles damage.

[3] = SLP 10 μM applied at germination (three days after GR24)
[4] = SLP 20 μM applied at germination
[5] = SLP 20 μM applied at preconditioning
[6] = SLP 30 μM applied at germination
[7] = SLP 30 μM applied at preconditioning
[8] = SLP 40 μM applied at germination
[9] = SLP 40 μM applied at preconditioning

B1: sarcotoxin IA (protein, listed as Sarcophaga peregrina)
chain: MNFQNIFIFVALILAVFAGQSQAGWLKKIGKKIERVGQHTRDATIQGLGIAQQAANVAATARG
- cytotoxic effect against bacteria [1]: potent cytotoxic effect
- Gemination (% of control) [2, 3]: 80 ± 6 % of control
- Radicle length (% of control) [2, 3]: 65 ± 5 % of control
- Radicle length (% of control) ([2]; SLP 10 μM applied at preconditioning (mixed with GR24)): 65 ± 6 % of control
- Gemination (% of control) ([2]; SLP 10 μM applied at preconditioning (mixed with GR24), 7 days, 26° C., dark): 76 ± 3 % of control
- Gemination (% of control) [2, 4]: 76 ± 8 % of control
- Radicle length (% of control) [2, 4]: 47 ± 3 % of control
- Gemination (% of control) [2, 5]: 69 ± 6 % of control
- Radicle length (% of control) [2, 5]: 52 ± 2 % of control
- Gemination (% of control) [2, 6]: 43 ± 7 % of control
- Radicle length (% of control) [2, 6]: 33 ± 4 % of control
- Gemination (% of control) [2, 7]: 6 ± 1 % of control
- Radicle length (% of control) [2, 7]: 12 ± 8 % of control
- Gemination (% of control) [2, 8]: 36 ± 2 % of control
- Radicle length (% of control) [2, 8]: 4 ± 1 % of control
- Gemination (% of control) [2, 9]: 0 % of control
- Radicle length (% of control) [2, 9]: 0 % of control
- radicle elongation and seed germination of the parasite ([2]; presence of SLP, in words): significantly reduced
